Entries after “also recorded” stand apart in the source; their conditions may differ.
Legend:
[1] = test system: LPS induced mouse proteinuria model; test: LPS induced mouse proteinuria model, protein in urine (prevention and reversal by dynamin gene delivery); format: in vivo
[2] = test system: podocytes; test: Podocyte motility, modified Boyden chamber assay; format: cell-based, mouse
Text: This study examined the role of dynamin in actin dynamics of podocytes. An adenoviral expression system was utilized to obtain expression of various dynamin mutants with more than 90% infection efficiency in cultured differentiated mouse podocytes and analyzed the organization of the actin cytoskeleton, their migratory and endocytotic behavior (FIG. 1). […] This type of actin rearrangement in cultured podocytes is resembling actin rearrangement in damaged podocytes during proteinuria in situ (Smoyer and Mundel, 1998). […] Thus, the consequence on actin dynamics in podocytes was examined when dynamin is hyperactive by expressing known dominant activators, dynK694A and dynR725A (SEQ ID NO.4). Both mutants are predicted to live longer in the GTP-bound form. […] To further examine this surprising phenotype in a biological context, motility assays were performed next using a modified Boyden Chamber assay.
Podocyte migration was analyzed using a 12-well chemotaxis chamber (Neuro Probe) according to the manufacturer's protocol. In brief, differentiated podocytes were treated with 50 μg/ml of LPS or PAN for 24 h and then harvested for the migration assay. Bottom plates were coated with type-I collagen, while upper plates were loaded with equal number of cells (5×10^4) suspended in medium. The chamber was incubated at 37° C. for 4 h before unassembled. The membrane was then taken out, processed and finally stained with diamidino phenylindole (DAPI) (Vector). The average number of migrated cells was counted in four fields in six independent experiments.
Podocytes were grown under non-permissive conditions to 70% confluence. Cells were washed twice with 1×PBS and infected with 1.2 ml of serum-free DMEM media containing 100 μl transactivator virus, 100 μl virus expressing dyn1 or dyn2. After 2 h of infection at 37° C., media containing virus was replaced with full DMEM. If cells were treated with LPS or PAN, 50 μg/ml of LPS or 50 μg/ml PAN was added at this point. 18-24 h post-infection, cells were detached using trypsin and processed either for subcellular fractionation or tested in the motility assays as described in (Reiser et al., J Biol Chem 279, 34827-34832 (2004)). When stated, 20 μM of Z-FF-FMK CatL specific inhibitor (Calbiochem, San Diego, Calif.) was added simultaneously with addition of LPS.

B1: dynR725A: dynamin mutant (SEQ ID NO.4) with impaired GTP hydrolysis capacity (protein, listed as Homo sapiens)
chain: MGNRGMEDLIPLVNRLQDAFSAIGQNADLDLPQIAVVGGQSAGKSSVLENFVGRDFLPRGSGIVTRRPLVLQLVNATTEYAEFLHCKGKKFTDFEEVRLEIEAETDRVTGTNKGISPVPINLRVYSPHVLNLTLVDLPGMTKVPVGDQPPDIEFQIRDMLMQFVTKENCLILAVSPANSDLANSDALKVAKEVDPQGQRTIGVITKLDLMDEGTDARDVLENKLLPLRRGYIGVVNRSQKDIDGKKDITAALAAERKFFLSHPSYRHLADRMGTPYLQKVLNQQLTNHIRDTLPGLRNKLQSQLLSIEKEVEEYKNFRPDDPARKTKALLQMVQQFAVDFEKRIEGSGDQIDTYELSGGARINRIFHERFPFELVKMEFDEKELRREISYAIKNIHGIRTGLFTPDMAFETIVKKQVKKIREPCLKCVDMVISELISTVRQCTKKLQQYPRLREEMERIVTTHIREREGRTKEQVMLLIDIELAYMNTNHEDFIGFANAQQRSNQMNKKKTSGNQDEILVIRKGWLTINNIGIMKGGSKEYWFVLTAENLSWYKDDEEKEKKYMLSVDNLKLRDVEKGFMSSKHIFALFNTEQRNVYKDYRQLELACETQEEVDSWKASFLRAGVYPERVGDKEKASETEENGSDSFMHSMDPQLERQVETIRNLVDSYMAIVNKTVRDLMPKTIMHLMINNTKEFIFSELLANLYSCGDQNTLMEESAEQAQRADEMLRMYHALKEALSIIGDINTTTVSTPMPPPVDDSWLQVQSVPAGRRSPTSSPTPQRRAPAVPPARPGSRGPAPGPPPAGSALGGAPPVPSRPGASPDPFGPPPQVPSRPNRAPPGVPSRSGQASPSRPESPRPPFDL
What does the source list for B1?
Protein in the urine ([1]; Table 2B Prevention, 2xLPS, t = 0): 0.17 ± 0.07 mg/mL; Protein in the urine ([1]; Table 2B Prevention, 2xLPS, t = 10 h): 0.23 ± 0.07 mg/mL; Protein in the urine ([1]; Table 2B Prevention, 2xLPS, t = 24 h): 0.20 mg/mL; Protein in the urine ([1]; Table 2B Prevention, 2xLPS, t = 48 h, listed as Dyn R725A): 1.25 ± 0.26 mg/mL; Protein in the urine ([1]; Table 2B Prevention, 2xLPS, t = 48 h, listed as R725A): 1.25 mg/mL; Protein in the urine ([1]; Table 2C Reversal, LPS at 0 and 24 h, t = 0): 0.28 ± 0.08 mg/mL; Protein in the urine ([1]; Table 2C Reversal, t = 48 h, at gene transfer): 1.15 mg/mL; Protein in the urine ([1]; Table 2C Reversal, t = 48 h, at gene transfer, listed as Dyn R725A): 1.15 ± 0.15 mg/mL; Protein in the urine ([1]; Table 2C Reversal, t = 58 h, 10 hours after gene transfer): 0.38 mg/mL; Protein in the urine ([1]; Table 2C Reversal, t = 58 h, 10 hours after gene transfer, listed as Dyn R725A): 0.38 ± 0.20 mg/mL; protection from LPS-induced proteinuria, in words ([1]; gene delivery immediately before LPS injection): completely inhibited development of proteinuria after 24 hours; reversal of established proteinuria, in words ([1]; injected at 48 hours, analyzed 12 hours post injection): almost complete reversal of proteinuria; LPS-induced increase in podocyte motility, in words ([2]; LPS-treated podocytes): blocked the LPS-induced increase in podocyte motility; podocyte motility, in words ([2]; adenoviral overexpression): significantly decreased podocyte motility; also recorded: decreasing motility
